Measured values from IntAct's records for PubMed 29892012.

What was measured:
tle5_human TLE5 = molecular target: T1, tle5_human TLE5 (UniProt Q08117)
T1 sequence: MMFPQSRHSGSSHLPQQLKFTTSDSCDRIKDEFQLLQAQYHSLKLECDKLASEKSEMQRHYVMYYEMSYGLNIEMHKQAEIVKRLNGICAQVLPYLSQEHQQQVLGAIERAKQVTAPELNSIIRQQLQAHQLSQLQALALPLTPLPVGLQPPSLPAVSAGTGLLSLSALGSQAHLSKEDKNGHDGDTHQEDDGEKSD

pnma5_human PNMA5 = pnma5_human PNMA5 (UniProt Q96PV4)
pnma5_human PNMA5, sequence (Q96PV4 whole entry): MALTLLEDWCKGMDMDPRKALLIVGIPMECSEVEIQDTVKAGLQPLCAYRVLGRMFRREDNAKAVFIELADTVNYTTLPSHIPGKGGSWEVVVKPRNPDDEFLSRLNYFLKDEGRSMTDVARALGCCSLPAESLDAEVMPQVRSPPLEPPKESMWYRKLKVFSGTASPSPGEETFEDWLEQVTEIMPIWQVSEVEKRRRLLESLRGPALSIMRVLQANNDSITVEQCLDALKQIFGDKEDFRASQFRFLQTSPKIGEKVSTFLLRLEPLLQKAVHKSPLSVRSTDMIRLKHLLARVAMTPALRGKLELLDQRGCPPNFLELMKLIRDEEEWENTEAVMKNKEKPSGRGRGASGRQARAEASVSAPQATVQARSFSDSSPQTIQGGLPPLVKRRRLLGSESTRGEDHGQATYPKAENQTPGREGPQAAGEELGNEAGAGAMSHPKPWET

- effect of a mutation on the interaction (tle5_human TLE5): disrupting interaction strength
- effect of a mutation on the interaction (pnma5_human PNMA5): with no effect
Substance: Golgi reassembly-stacking protein 2 (Homo sapiens) (from UniProt Q9H8Y8) L320R
